Data taken from patent US20240287484.

What was measured:
Settings in all cases: qPCR; 3 mM MgCl2, 37 C
[1] = test system: T1, MG153-11 RT (uncultivated organism (metagenomic))
T1 sequence: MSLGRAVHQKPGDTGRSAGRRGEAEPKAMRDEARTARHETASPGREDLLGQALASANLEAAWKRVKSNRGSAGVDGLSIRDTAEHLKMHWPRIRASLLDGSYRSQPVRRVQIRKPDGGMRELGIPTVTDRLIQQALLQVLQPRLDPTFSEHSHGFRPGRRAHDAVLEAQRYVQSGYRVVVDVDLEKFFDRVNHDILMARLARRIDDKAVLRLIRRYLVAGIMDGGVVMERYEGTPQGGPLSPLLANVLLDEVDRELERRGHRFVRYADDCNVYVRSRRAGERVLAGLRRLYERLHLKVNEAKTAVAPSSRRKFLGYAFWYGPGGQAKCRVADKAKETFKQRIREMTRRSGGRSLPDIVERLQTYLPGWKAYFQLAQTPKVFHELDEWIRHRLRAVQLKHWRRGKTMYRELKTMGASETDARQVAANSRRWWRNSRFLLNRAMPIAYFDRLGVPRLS

[2] = test system: T2, MG153-8 RT (uncultivated organism (metagenomic))
T2 sequence: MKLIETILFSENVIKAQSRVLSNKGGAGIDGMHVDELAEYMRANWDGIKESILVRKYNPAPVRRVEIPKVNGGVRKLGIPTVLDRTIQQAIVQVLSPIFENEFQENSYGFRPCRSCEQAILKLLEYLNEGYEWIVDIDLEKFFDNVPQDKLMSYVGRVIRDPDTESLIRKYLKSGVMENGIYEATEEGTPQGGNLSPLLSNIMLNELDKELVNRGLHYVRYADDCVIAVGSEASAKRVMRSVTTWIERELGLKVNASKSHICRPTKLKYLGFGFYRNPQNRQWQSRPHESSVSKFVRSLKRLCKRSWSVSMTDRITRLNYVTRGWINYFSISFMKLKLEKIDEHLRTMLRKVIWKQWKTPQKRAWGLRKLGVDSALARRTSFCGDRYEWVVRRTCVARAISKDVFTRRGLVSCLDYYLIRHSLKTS

[3] = test system: T3, MG165-6 RT (uncultivated organism (metagenomic))
T3 sequence: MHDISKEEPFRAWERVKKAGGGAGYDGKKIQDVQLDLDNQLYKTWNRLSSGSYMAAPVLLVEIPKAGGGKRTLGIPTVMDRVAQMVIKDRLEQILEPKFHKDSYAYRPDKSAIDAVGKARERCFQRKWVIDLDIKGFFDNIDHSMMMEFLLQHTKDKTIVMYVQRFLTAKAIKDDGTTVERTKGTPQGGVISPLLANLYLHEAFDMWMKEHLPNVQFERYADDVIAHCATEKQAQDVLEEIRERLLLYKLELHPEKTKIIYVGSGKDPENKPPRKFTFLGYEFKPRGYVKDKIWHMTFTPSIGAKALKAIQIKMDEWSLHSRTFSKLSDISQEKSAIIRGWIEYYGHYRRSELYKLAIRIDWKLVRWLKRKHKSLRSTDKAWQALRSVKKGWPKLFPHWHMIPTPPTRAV

[4] = test system: T4, MG165-8 RT (uncultivated organism (metagenomic))
T4 sequence: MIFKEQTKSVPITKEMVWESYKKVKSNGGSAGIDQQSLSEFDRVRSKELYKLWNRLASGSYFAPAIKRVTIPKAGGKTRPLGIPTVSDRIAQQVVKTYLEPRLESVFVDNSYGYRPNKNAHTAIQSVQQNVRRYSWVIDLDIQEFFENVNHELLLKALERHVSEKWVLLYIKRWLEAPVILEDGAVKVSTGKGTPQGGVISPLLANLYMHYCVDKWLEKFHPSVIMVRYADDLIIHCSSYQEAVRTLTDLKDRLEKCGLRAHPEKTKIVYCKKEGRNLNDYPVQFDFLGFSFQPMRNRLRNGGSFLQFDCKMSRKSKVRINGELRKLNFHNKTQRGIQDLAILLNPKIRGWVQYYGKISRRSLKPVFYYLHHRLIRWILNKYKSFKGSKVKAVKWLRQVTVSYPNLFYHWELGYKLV

[5] = test system: T5, MG165-4 RT (uncultivated organism (metagenomic))
T5 sequence: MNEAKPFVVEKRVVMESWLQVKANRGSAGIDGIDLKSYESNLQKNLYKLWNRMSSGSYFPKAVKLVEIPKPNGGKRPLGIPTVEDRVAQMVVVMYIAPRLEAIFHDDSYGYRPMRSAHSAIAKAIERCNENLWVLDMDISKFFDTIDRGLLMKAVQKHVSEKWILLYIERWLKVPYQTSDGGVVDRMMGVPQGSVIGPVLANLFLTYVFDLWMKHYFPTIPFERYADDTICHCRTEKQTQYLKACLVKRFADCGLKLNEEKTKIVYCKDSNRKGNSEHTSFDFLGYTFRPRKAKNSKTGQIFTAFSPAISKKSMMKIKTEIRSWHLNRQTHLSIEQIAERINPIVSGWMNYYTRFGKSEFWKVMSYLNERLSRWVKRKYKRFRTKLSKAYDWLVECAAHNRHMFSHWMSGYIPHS

[6] = test system: MG167-5 RT (uncultivated organism (metagenomic))
[7] = test system: T6, MG167-3 RT (uncultivated organism (metagenomic))
T6 sequence: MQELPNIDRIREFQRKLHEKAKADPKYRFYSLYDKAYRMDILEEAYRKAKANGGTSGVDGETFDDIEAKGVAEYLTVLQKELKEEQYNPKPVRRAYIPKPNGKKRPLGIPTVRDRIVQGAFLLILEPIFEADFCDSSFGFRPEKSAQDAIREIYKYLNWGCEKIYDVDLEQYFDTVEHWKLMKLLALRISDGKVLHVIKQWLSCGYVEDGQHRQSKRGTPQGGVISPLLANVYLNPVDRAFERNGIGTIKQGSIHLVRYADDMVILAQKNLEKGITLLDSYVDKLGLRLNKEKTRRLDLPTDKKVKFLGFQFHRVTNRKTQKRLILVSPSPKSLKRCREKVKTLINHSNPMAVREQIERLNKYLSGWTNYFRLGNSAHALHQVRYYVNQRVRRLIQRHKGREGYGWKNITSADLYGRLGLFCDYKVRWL

Measured: activity (fold over background)

MG167-5 RT (uncultivated organism (metagenomic)), sequence (chain, as listed by the source): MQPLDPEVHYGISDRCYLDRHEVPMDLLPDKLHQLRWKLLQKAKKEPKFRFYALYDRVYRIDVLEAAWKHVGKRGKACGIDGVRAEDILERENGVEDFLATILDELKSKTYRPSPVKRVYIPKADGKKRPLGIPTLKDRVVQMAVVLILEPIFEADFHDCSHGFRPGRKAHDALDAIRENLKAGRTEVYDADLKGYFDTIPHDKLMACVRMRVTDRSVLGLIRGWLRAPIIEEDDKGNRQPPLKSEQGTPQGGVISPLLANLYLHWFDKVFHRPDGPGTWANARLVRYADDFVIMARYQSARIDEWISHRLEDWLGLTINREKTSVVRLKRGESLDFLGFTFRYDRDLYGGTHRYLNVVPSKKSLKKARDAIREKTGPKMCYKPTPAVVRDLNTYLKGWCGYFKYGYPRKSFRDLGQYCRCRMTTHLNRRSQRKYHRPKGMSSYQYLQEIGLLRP

200 nt RNA template annealed to DNA primer
> 10: all assays above
